# In patent publication US20210388087A1 (Chugai, published 2021):
# T1: Human CD3eg linker (human)
# T1 construct: Single chain: epsilon and gamma subunits of human CD3 joined by a 29-mer linker, Flag-tag at the C-terminus; also called recombinant human CD3
# T1 chain: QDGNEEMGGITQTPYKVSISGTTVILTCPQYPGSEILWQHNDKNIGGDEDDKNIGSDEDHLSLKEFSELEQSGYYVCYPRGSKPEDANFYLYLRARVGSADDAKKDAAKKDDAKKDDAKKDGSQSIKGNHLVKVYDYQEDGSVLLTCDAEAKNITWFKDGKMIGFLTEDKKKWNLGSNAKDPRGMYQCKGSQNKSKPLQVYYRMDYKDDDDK
# Biological target: T1, Human CD3eg linker
# Assay: Biacore SPR, vs template H183/L072
row,Binder,fold change of affinity
1,"H183/L072 VH W33A (antibody, name in Kabat numbering, V domains shown) VH: QVQLVESGGGLVQPGRSLRLSCAASGFTFSNAAMHWVRQAPGKGLEWVAQIKDKGNAYAAYYAPSVKGRFTISRDDSKNSIYLQMNSLKTEDTAVYYCHYVHYASASTVLPAFGVDAWGQGTTVTVSS VL: DIVMTQSPLSLPVTPGEPASISCQASQELVHMNRNTYLHWYQQKPGQAPRLLIYKVSNRFPGVPDRFSGSGSGTDFTLKISRVEAEDVGVYYCAQGTSVPFTFGQGTKLEIK",0 fold
2,"H183/L072 VH W33D (antibody, name in Kabat numbering, V domains shown) VH: QVQLVESGGGLVQPGRSLRLSCAASGFTFSNADMHWVRQAPGKGLEWVAQIKDKGNAYAAYYAPSVKGRFTISRDDSKNSIYLQMNSLKTEDTAVYYCHYVHYASASTVLPAFGVDAWGQGTTVTVSS VL: DIVMTQSPLSLPVTPGEPASISCQASQELVHMNRNTYLHWYQQKPGQAPRLLIYKVSNRFPGVPDRFSGSGSGTDFTLKISRVEAEDVGVYYCAQGTSVPFTFGQGTKLEIK",0 fold
3,"H183/L072 VH W33K (antibody, name in Kabat numbering, V domains shown) VH: QVQLVESGGGLVQPGRSLRLSCAASGFTFSNAKMHWVRQAPGKGLEWVAQIKDKGNAYAAYYAPSVKGRFTISRDDSKNSIYLQMNSLKTEDTAVYYCHYVHYASASTVLPAFGVDAWGQGTTVTVSS VL: DIVMTQSPLSLPVTPGEPASISCQASQELVHMNRNTYLHWYQQKPGQAPRLLIYKVSNRFPGVPDRFSGSGSGTDFTLKISRVEAEDVGVYYCAQGTSVPFTFGQGTKLEIK",0 fold
4,"H183/L072 VH W33E (antibody, name in Kabat numbering, V domains shown) VH: QVQLVESGGGLVQPGRSLRLSCAASGFTFSNAEMHWVRQAPGKGLEWVAQIKDKGNAYAAYYAPSVKGRFTISRDDSKNSIYLQMNSLKTEDTAVYYCHYVHYASASTVLPAFGVDAWGQGTTVTVSS VL: DIVMTQSPLSLPVTPGEPASISCQASQELVHMNRNTYLHWYQQKPGQAPRLLIYKVSNRFPGVPDRFSGSGSGTDFTLKISRVEAEDVGVYYCAQGTSVPFTFGQGTKLEIK",0 fold
5,"H183/L072 VH W33L (antibody, name in Kabat numbering, V domains shown) VH: QVQLVESGGGLVQPGRSLRLSCAASGFTFSNALMHWVRQAPGKGLEWVAQIKDKGNAYAAYYAPSVKGRFTISRDDSKNSIYLQMNSLKTEDTAVYYCHYVHYASASTVLPAFGVDAWGQGTTVTVSS VL: DIVMTQSPLSLPVTPGEPASISCQASQELVHMNRNTYLHWYQQKPGQAPRLLIYKVSNRFPGVPDRFSGSGSGTDFTLKISRVEAEDVGVYYCAQGTSVPFTFGQGTKLEIK",0 fold
6,"H183/L072 VH W33F (antibody, name in Kabat numbering, V domains shown) VH: QVQLVESGGGLVQPGRSLRLSCAASGFTFSNAFMHWVRQAPGKGLEWVAQIKDKGNAYAAYYAPSVKGRFTISRDDSKNSIYLQMNSLKTEDTAVYYCHYVHYASASTVLPAFGVDAWGQGTTVTVSS VL: DIVMTQSPLSLPVTPGEPASISCQASQELVHMNRNTYLHWYQQKPGQAPRLLIYKVSNRFPGVPDRFSGSGSGTDFTLKISRVEAEDVGVYYCAQGTSVPFTFGQGTKLEIK",0.4 fold
7,"H183/L072 VH W33I (antibody, name in Kabat numbering, V domains shown) VH: QVQLVESGGGLVQPGRSLRLSCAASGFTFSNAIMHWVRQAPGKGLEWVAQIKDKGNAYAAYYAPSVKGRFTISRDDSKNSIYLQMNSLKTEDTAVYYCHYVHYASASTVLPAFGVDAWGQGTTVTVSS VL: DIVMTQSPLSLPVTPGEPASISCQASQELVHMNRNTYLHWYQQKPGQAPRLLIYKVSNRFPGVPDRFSGSGSGTDFTLKISRVEAEDVGVYYCAQGTSVPFTFGQGTKLEIK",0 fold
8,"H183/L072 VH W33G (antibody, name in Kabat numbering, V domains shown) VH: QVQLVESGGGLVQPGRSLRLSCAASGFTFSNAGMHWVRQAPGKGLEWVAQIKDKGNAYAAYYAPSVKGRFTISRDDSKNSIYLQMNSLKTEDTAVYYCHYVHYASASTVLPAFGVDAWGQGTTVTVSS VL: DIVMTQSPLSLPVTPGEPASISCQASQELVHMNRNTYLHWYQQKPGQAPRLLIYKVSNRFPGVPDRFSGSGSGTDFTLKISRVEAEDVGVYYCAQGTSVPFTFGQGTKLEIK",0 fold
9,"H183/L072 VH W33H (antibody, name in Kabat numbering, V domains shown) VH: QVQLVESGGGLVQPGRSLRLSCAASGFTFSNAHMHWVRQAPGKGLEWVAQIKDKGNAYAAYYAPSVKGRFTISRDDSKNSIYLQMNSLKTEDTAVYYCHYVHYASASTVLPAFGVDAWGQGTTVTVSS VL: DIVMTQSPLSLPVTPGEPASISCQASQELVHMNRNTYLHWYQQKPGQAPRLLIYKVSNRFPGVPDRFSGSGSGTDFTLKISRVEAEDVGVYYCAQGTSVPFTFGQGTKLEIK",0 fold

# Now from value to binder:
row,fold change of affinity,Binder
1,0.1 fold,"H183/L072 VH W33Y (antibody, name in Kabat numbering, V domains shown) VH: QVQLVESGGGLVQPGRSLRLSCAASGFTFSNAYMHWVRQAPGKGLEWVAQIKDKGNAYAAYYAPSVKGRFTISRDDSKNSIYLQMNSLKTEDTAVYYCHYVHYASASTVLPAFGVDAWGQGTTVTVSS VL: DIVMTQSPLSLPVTPGEPASISCQASQELVHMNRNTYLHWYQQKPGQAPRLLIYKVSNRFPGVPDRFSGSGSGTDFTLKISRVEAEDVGVYYCAQGTSVPFTFGQGTKLEIK"
2,0 fold,"H183/L072 VH W33Q (antibody, name in Kabat numbering, V domains shown) VH: QVQLVESGGGLVQPGRSLRLSCAASGFTFSNAQMHWVRQAPGKGLEWVAQIKDKGNAYAAYYAPSVKGRFTISRDDSKNSIYLQMNSLKTEDTAVYYCHYVHYASASTVLPAFGVDAWGQGTTVTVSS VL: DIVMTQSPLSLPVTPGEPASISCQASQELVHMNRNTYLHWYQQKPGQAPRLLIYKVSNRFPGVPDRFSGSGSGTDFTLKISRVEAEDVGVYYCAQGTSVPFTFGQGTKLEIK"
3,0.4 fold,"H183/L072 VH Y55D (antibody, name in Kabat numbering, V domains shown) VH: QVQLVESGGGLVQPGRSLRLSCAASGFTFSNAWMHWVRQAPGKGLEWVAQIKDKGNADAAYYAPSVKGRFTISRDDSKNSIYLQMNSLKTEDTAVYYCHYVHYASASTVLPAFGVDAWGQGTTVTVSS VL: DIVMTQSPLSLPVTPGEPASISCQASQELVHMNRNTYLHWYQQKPGQAPRLLIYKVSNRFPGVPDRFSGSGSGTDFTLKISRVEAEDVGVYYCAQGTSVPFTFGQGTKLEIK"
4,0 fold,"H183/L072 VH W33R (antibody, name in Kabat numbering, V domains shown) VH: QVQLVESGGGLVQPGRSLRLSCAASGFTFSNARMHWVRQAPGKGLEWVAQIKDKGNAYAAYYAPSVKGRFTISRDDSKNSIYLQMNSLKTEDTAVYYCHYVHYASASTVLPAFGVDAWGQGTTVTVSS VL: DIVMTQSPLSLPVTPGEPASISCQASQELVHMNRNTYLHWYQQKPGQAPRLLIYKVSNRFPGVPDRFSGSGSGTDFTLKISRVEAEDVGVYYCAQGTSVPFTFGQGTKLEIK"
5,0 fold,"H183/L072 VH W33S (antibody, name in Kabat numbering, V domains shown) VH: QVQLVESGGGLVQPGRSLRLSCAASGFTFSNASMHWVRQAPGKGLEWVAQIKDKGNAYAAYYAPSVKGRFTISRDDSKNSIYLQMNSLKTEDTAVYYCHYVHYASASTVLPAFGVDAWGQGTTVTVSS VL: DIVMTQSPLSLPVTPGEPASISCQASQELVHMNRNTYLHWYQQKPGQAPRLLIYKVSNRFPGVPDRFSGSGSGTDFTLKISRVEAEDVGVYYCAQGTSVPFTFGQGTKLEIK"
6,0 fold,"H183/L072 VH W33V (antibody, name in Kabat numbering, V domains shown) VH: QVQLVESGGGLVQPGRSLRLSCAASGFTFSNAVMHWVRQAPGKGLEWVAQIKDKGNAYAAYYAPSVKGRFTISRDDSKNSIYLQMNSLKTEDTAVYYCHYVHYASASTVLPAFGVDAWGQGTTVTVSS VL: DIVMTQSPLSLPVTPGEPASISCQASQELVHMNRNTYLHWYQQKPGQAPRLLIYKVSNRFPGVPDRFSGSGSGTDFTLKISRVEAEDVGVYYCAQGTSVPFTFGQGTKLEIK"
7,0.4 fold,"H183/L072 VH Y55A (antibody, name in Kabat numbering, V domains shown) VH: QVQLVESGGGLVQPGRSLRLSCAASGFTFSNAWMHWVRQAPGKGLEWVAQIKDKGNAAAAYYAPSVKGRFTISRDDSKNSIYLQMNSLKTEDTAVYYCHYVHYASASTVLPAFGVDAWGQGTTVTVSS VL: DIVMTQSPLSLPVTPGEPASISCQASQELVHMNRNTYLHWYQQKPGQAPRLLIYKVSNRFPGVPDRFSGSGSGTDFTLKISRVEAEDVGVYYCAQGTSVPFTFGQGTKLEIK"
8,0 fold,"H183/L072 VH W33P (antibody, name in Kabat numbering, V domains shown) VH: QVQLVESGGGLVQPGRSLRLSCAASGFTFSNAPMHWVRQAPGKGLEWVAQIKDKGNAYAAYYAPSVKGRFTISRDDSKNSIYLQMNSLKTEDTAVYYCHYVHYASASTVLPAFGVDAWGQGTTVTVSS VL: DIVMTQSPLSLPVTPGEPASISCQASQELVHMNRNTYLHWYQQKPGQAPRLLIYKVSNRFPGVPDRFSGSGSGTDFTLKISRVEAEDVGVYYCAQGTSVPFTFGQGTKLEIK"
9,0 fold,"H183/L072 VH W33M (antibody, name in Kabat numbering, V domains shown) VH: QVQLVESGGGLVQPGRSLRLSCAASGFTFSNAMMHWVRQAPGKGLEWVAQIKDKGNAYAAYYAPSVKGRFTISRDDSKNSIYLQMNSLKTEDTAVYYCHYVHYASASTVLPAFGVDAWGQGTTVTVSS VL: DIVMTQSPLSLPVTPGEPASISCQASQELVHMNRNTYLHWYQQKPGQAPRLLIYKVSNRFPGVPDRFSGSGSGTDFTLKISRVEAEDVGVYYCAQGTSVPFTFGQGTKLEIK"
10,0 fold,"H183/L072 VH W33T (antibody, name in Kabat numbering, V domains shown) VH: QVQLVESGGGLVQPGRSLRLSCAASGFTFSNATMHWVRQAPGKGLEWVAQIKDKGNAYAAYYAPSVKGRFTISRDDSKNSIYLQMNSLKTEDTAVYYCHYVHYASASTVLPAFGVDAWGQGTTVTVSS VL: DIVMTQSPLSLPVTPGEPASISCQASQELVHMNRNTYLHWYQQKPGQAPRLLIYKVSNRFPGVPDRFSGSGSGTDFTLKISRVEAEDVGVYYCAQGTSVPFTFGQGTKLEIK"
11,0 fold,"H183/L072 VH W33N (antibody, name in Kabat numbering, V domains shown) VH: QVQLVESGGGLVQPGRSLRLSCAASGFTFSNANMHWVRQAPGKGLEWVAQIKDKGNAYAAYYAPSVKGRFTISRDDSKNSIYLQMNSLKTEDTAVYYCHYVHYASASTVLPAFGVDAWGQGTTVTVSS VL: DIVMTQSPLSLPVTPGEPASISCQASQELVHMNRNTYLHWYQQKPGQAPRLLIYKVSNRFPGVPDRFSGSGSGTDFTLKISRVEAEDVGVYYCAQGTSVPFTFGQGTKLEIK"
